According to article PMC4731797:

Target: E. coli 70S ribosome (E. coli (endogenous in MRE600)) (UniProt P0AG67)
Assay: co-purification with ribosomes isolated from cell extract; 70S ribosomes from E. coli MRE600, low salt wash (0.75 M NH4Cl; 0.6 M for 2D-PAGE); 12% SDS-PAGE and 2D-PAGE, MALDI-TOF/TOF mass spectrometry, western blot with anti-AdhE; occupancy from band intensities with L2 as 100%

Substance: outer membrane protein C (OmpC), co-purified with the E. coli 70S ribosome (from UniProt P06996 22-367) (natural protein)
- occupancy: 60%

Substance: aldehyde-alcohol dehydrogenase E (AdhE), co-purified with the E. coli 70S ribosome (from UniProt P0A9Q7 1-891) (natural protein)
- occupancy: 50%
